Data from patent publication US20200399347A1, “IL-22BP COMPOSITIONS AND METHOD FOR THE TREATMENT OF DISEASE THEREWITH” (The Regents of the University of Michigan, priority 2017, published 2020).

Key:
PD2560 = assay: Cisplatin mediated cell death (cleaved caspase 3 immunoblot) with or without IL-22 pre-treatment; type: cell-based, murine
Experimental: Chemoresistance is a well-established phenomenon in PDAC and is often responsible for disease progression and death. […] Cells were then treated with varying doses of cisplatin and cell death assessed by immunoblot for cleaved caspase 3. Degree of DNA damage was determined by measurement of phosphorylated histone 2AX (pH2AX), a marker of DNA damage triggered by cisplatin (ref. 39; incorporated by reference in its entirety). […] The differences in cell death appeared to be mediated by changes in DNA damage (FIG. 6 Panel B).

mouse IL-22 = target: T1, mouse IL-22 (Mus musculus, UniProt Q9JJY9); assay: Neutralization of mouse IL-22 by IL-22BP, read out as pSTAT3 activation in PDAC lines; type: cell-based; conditions: IL-22 100 ng/ml incubated 30 minutes with IL-22BP 0-1000 ng/ml, pSTAT3 at 15 minutes in PDAC lines
T1 sequence (Q9JJY9 34-179): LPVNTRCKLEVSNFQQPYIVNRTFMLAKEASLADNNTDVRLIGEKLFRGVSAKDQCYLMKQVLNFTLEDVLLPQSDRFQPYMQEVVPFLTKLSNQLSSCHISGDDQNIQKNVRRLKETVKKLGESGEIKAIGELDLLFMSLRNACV
Experimental: (§1) IL-22BP is an important regulator of IL-22 signaling at the tissue level and functions by sequestering cytokine and blocking its ability to bind to its cognate receptor. Its high affinity for IL-22 and neutralizing ability make it an attractive target for pharmacologic disruption of IL-22 signaling. To determine its efficacy in vitro, a fixed concentration of human and mouse IL-22 (100 ng/ml) was incubated for 30 minutes with increasing concentrations of human or mouse IL-22BP (0-1000 ng/ml). The mixture was then placed onto human and murine PDAC lines and IL-22 signaling measured by pSTAT3 activation at 15 minutes. […] A fusion protein which binds hIL-22BP to murine albumin was constructed.

IL-22 [1] = target: T2, IL-22 (Homo sapiens, UniProt Q9GZX6); assay: In vitro testing of fusion protein for sequestration and abrogation of STAT3 signaling; type: cell-based; conditions: IL-22 species not stated, FIG. 6 Panel E
T2 sequence (Q9GZX6 34-179): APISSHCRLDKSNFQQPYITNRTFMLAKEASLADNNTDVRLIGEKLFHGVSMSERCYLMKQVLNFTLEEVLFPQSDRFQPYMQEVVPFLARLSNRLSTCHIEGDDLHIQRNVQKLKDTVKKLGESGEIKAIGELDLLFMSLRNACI
Experimental: as §1

IL-22 [2] = target: T2, IL-22; assay: Neutralization of human IL-22 by IL-22BP, read out as pSTAT3 activation in PDAC lines; type: cell-based; conditions: IL-22 100 ng/ml incubated 30 minutes with IL-22BP 0-1000 ng/ml, pSTAT3 at 15 minutes in PDAC lines
Experimental: as §1

[3] = target: T3, IL-22BP-Alb fusion protein (human IL-22BP fused to murine albumin) (Homo sapiens; mouse, UniProt Q969J5 22-263); assay: binding inferred from neutralisation of IL-22-induced pSTAT3 signaling in vitro
T3 construct: also called fusion protein of hIL-22BP and albumin; not shown: serum albumin, mouse, cloned from mouse liver
T3 sequence: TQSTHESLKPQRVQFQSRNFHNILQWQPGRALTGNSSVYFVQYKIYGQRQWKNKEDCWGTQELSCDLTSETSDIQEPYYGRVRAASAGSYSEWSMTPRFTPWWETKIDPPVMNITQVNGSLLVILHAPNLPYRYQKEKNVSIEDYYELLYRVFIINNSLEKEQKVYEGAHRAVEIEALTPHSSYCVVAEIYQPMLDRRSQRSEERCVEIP
Experimental: as §1

[4] = target: T4, human IL-22 binding protein (IL-22BP) (Homo sapiens, UniProt Q969J5 22-263); assay: binding inferred from neutralisation of IL-22-induced pSTAT3 on PDAC cells (immunoblot)
T4 construct: also called hIL-22BP; human IL-22BP
T4 sequence: T3 sequence

[5] = tested on: human and mouse PDAC cell lines; assay: Immunoblotting for STAT3 and NF-κB activation after IL-22 incubation; type: cell-based; conditions: 100 ng/ml of IL-22 for 15 and 30 minutes
Description: One of the principle signaling pathways activated by ligand binding at IL-22R1 is via JAK mediated phosphorylation of STAT3 (pSTAT3) (Refs. 7, 36, 37; incorporated by reference in its entirety). Because of constitutive association of STAT3 with the intracellular domain of the receptor, signaling is activated rapidly and efficiently upon IL-22 binding (ref 38; incorporated by reference in its entirety). A second, less described IL-22 signaling pathway is via NF-κB, which leads to transcription of genes associated with proliferation and prevention of apoptosis (ref. 6, 7; incorporated by reference in their entireties). To evaluate the ability of IL-22 to activate STAT3 and NF-κB in human and mouse PDAC, cell lines were incubated with 100 ng/ml of IL-22 for 15 and 30 minutes. […] To determine the presence of STAT3 activation in-vivo, IHC for pSTAT3 was performed on pancreata harvested from PKCY mice at 8 weeks (low-grade PanIN), 12 weeks (high-grade PanIN) and after ultrasound confirmation of PDAC. pSTAT3 staining was increased as lesions advanced from low grade PanIN to invasive cancer (FIG. 4B-D).

PKCY cells = assay: Matrigel invasion assay, PDAC line; type: cell-based, murine; conditions: IL-22 incubation compared to control conditions (untreated and IL-6)
Experimental: (§2) To establish the role of IL-22 in pancreatic tumorigenesis in vitro, the murine PDAC line PKCY and PanIN lines 134, 5505 and 5552 were incubated in IL-22. Matrigel invasion assays were performed and number of infiltrating cells quantified. IL-22 incubation induced a 10-fold increase in invasion of PKCY cells compared to control conditions (untreated and IL-6) (FIG. 5 Panel A). […] Wild-type and IL-22 knockout mice were subcutaneously inoculated with equal quantities of PKCY cells. At 21 days, mice were sacrificed and tumor development, size and weight were determined.

PanIN cell lines = assay: Matrigel invasion assay, PanIN lines; type: cell-based, murine; conditions: IL-22 incubation; two PanIN cell lines with little to no invasive capability at baseline
Experimental: as §2

## N.N.[Cl][Pt][Cl] [cisplatin, reference compound]
PD2560; murine PDAC line PD2560, low and high doses
  cell death by cisplatin (cleaved caspase 3): showed sensitivity

B1: IL-22BP-Alb: fusion protein which binds hIL-22BP to murine albumin (protein)
chain: T3 sequence
modifications: left off: large carriers
Mouse IL-22
  neutralization of murine IL-22 (pSTAT3 activation): capable of binding and neutralizing
IL-22 [1]
  neutralization of IL-22 (sequestration and abrogation of STAT3 signaling): capable of neutralizing IL-22
IL-22 [2]
  neutralization of human IL-22 (pSTAT3 activation): capable of binding and neutralizing

B2: human IL-22 (ligand, UniProt Q9GZX6 34-179, looked up)
chain: T2 sequence (Q9GZX6 34-179)
notes: Used at a fixed 100 ng/ml
[3]
  binding result: binds
[4]
  binding result: binds

B3: IL-22: α-helical cytokine that binds the heterodimeric cell surface receptor IL-22R (protein, UniProt Q9GZX6 34-179, looked up)
Interleukin-22: T2 sequence (Q9GZX6 34-179)
PD2560; PD2560 cultured in IL-22 for 4 days before cisplatin
  effect of IL-22 pre-treatment on sensitivity to cisplatin: diminished
[5]
  pSTAT3 activation: robust pSTAT3 activation
[5]; KPC and PKCY lines
  pNF-κB: modest increase
PKCY cells
  increase in invasion of PKCY cells: 10 fold
PanIN cell lines
  invasion of PanIN cell lines: induced invasion

B4: mouse IL-22 (ligand, UniProt Q9JJY9 34-179, looked up)
chain: T1 sequence (Q9JJY9 34-179)
notes: Used at a fixed 100 ng/ml; also called murine IL-22
[3]
  binding result: binds
[4]
  binding result: binds

B5: murine IL-22BP: mouse interleukin-22 binding protein (SEQ ID NO: 2) (protein, listed as Mus musculus)
chain: MMPKHCLLGLLIILLSSATALEIQPARVSLTPQKVRFQSRNFHNILHWQAGSSLPSNNSIYFVQYKMYGQSQWEDKVDCWGTTALFCDLTNETLDPYELYYGRVMTACAGRHSAWTRTPRFTPWWETKLDPPVVTITRVNASLRVLLRPPELPNRNQSGKNASMETYYGLVYRVFTINNSLEKEQKAYEGTQRAVEIEGLIPHSSYCVVAEMYQPMFDRRSPRSKERCVQIP
Mouse IL-22
  neutralization of murine IL-22 (pSTAT3 activation): little sequestration
IL-22 [2]
  neutralization of human IL-22 (pSTAT3 activation): little sequestration

B6: Human IL-22BP: human interleukin-22 binding protein, soluble receptor capable of cytokine neutralization (SEQ ID NO: 1) (protein, listed as Homo sapiens)
chain: MMPKHCFLGFLISFFLTGVAGTQSTHESLKPQRVQFQSRNFHNILQWQPGRALTGNSSVYFVQYKIYGQRQWKNKEDCWGTQELSCDLTSETSDIQEPYYGRVRAASAGSYSEWSMTPRFTPWWETKIDPPVMNITQVNGSLLVILHAPNLPYRYQKEKNVSIEDYYELLYRVFIINNSLEKEQKVYEGAHRAVEIEALTPHSSYCVVAEIYQPMLDRRSQRSEERCVEIP
Mouse IL-22
  neutralization of murine IL-22 (pSTAT3 activation): completely neutralizing
Mouse IL-22; listed as hIL-22BP
  neutralization of murine IL-22 (pSTAT3 activation): capable of binding and neutralizing
IL-22 [2]
  neutralization of human IL-22 (pSTAT3 activation): completely neutralizing
IL-22 [2]; listed as hIL-22BP
  neutralization of human IL-22 (pSTAT3 activation): capable of binding and neutralizing
